First the molecules themselves.
T1: NT-4 (neurotrophin-4) (Homo sapiens, UniProt P34130 P34130:81-210)
T1 sequence: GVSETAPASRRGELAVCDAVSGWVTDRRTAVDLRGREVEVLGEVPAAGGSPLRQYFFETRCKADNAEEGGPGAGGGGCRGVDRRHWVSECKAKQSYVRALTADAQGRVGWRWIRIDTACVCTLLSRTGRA

B1: SEQ ID NO: 82(43) (ssRNA)
RNA: GGGUCCUGGAUAAGAGUUUCCGUCUCGUAUCCUGUUACCC
modifications: as 82(25) except 2'-OMe A13
B2: SEQ ID NO: 82(19) (ssRNA)
RNA: B1 RNA
modifications: as 82(1) except 2'-OMe U4,C6,U11,C20,C21,C26,U28,U30,C31,C32,U35,C38-40
B3: SEQ ID NO: 157 (ssRNA)
RNA: B1 RNA with U18T
modifications: as 82(1) except dT18
B4: SEQ ID NO: 82(44) (ssRNA)
RNA: B1 RNA
modifications: as 82(25) except 2'-OMe A12
B5: SEQ ID NO: 82(30) (ssRNA)
RNA: B1 RNA
modifications: as 82(1) except dC20
B6: SEQ ID NO: 87(1) (ssRNA)
RNA: GGGUCCUGCUCAAGAGUUUCCGUCUCGUGGGCUGUUACCC
modifications: 2'-OMe G1-3,C38-40; other C/U 2'-F, G 2'-OH, dA; 5',3' idT
B7: SEQ ID NO: 88(4) (ssRNA)
RNA: B6 RNA with C9U, G30A, G31A
modifications: as 88(3) plus 2'-OMe U9,U10,C11,G29
B8: SEQ ID NO: 88(1) (ssRNA)
RNA: B6 RNA with C9U, G30A, G31A
modifications: 2'-OMe C38-40; other C/U 2'-F, G 2'-OH, dA; 5',3' idT
B9: SEQ ID NO: 88(3) (ssRNA)
RNA: B6 RNA with C9U, G30A, G31A
modifications: 2'-OMe G1-3,U4,C6,G14,G16,C21,G22,U23,C26,G27,U28,C32,U35,C38-40; other C/U 2'-F, G 2'-OH, dA; 5',3' idT
B10: SEQ ID NO: 88(2) (ssRNA)
RNA: B6 RNA with C9U, G30A, G31A
modifications: 2'-OMe G1-3,C38-40; other C/U 2'-F, G 2'-OH, dA; 5',3' idT
B11: SEQ ID NO: 89(1) (ssRNA)
RNA: GGGUCCUGUGGAAGAGUUUCCGUCUCGUCCACUGUUACCC
modifications: 2'-OMe G1-3,C38-40; other C/U 2'-F, G 2'-OH, dA; 5',3' idT
B12: SEQ ID NO: 89(2) (ssRNA)
RNA: B11 RNA
modifications: 2'-OMe G1-3,C6,G14,G16,C21,G22,U23,C26,G27,U28,C32,U35,C38-40; other C/U 2'-F, G 2'-OH, dA; 5',3' idT
B13: SEQ ID NO: 89(3) (ssRNA)
RNA: B11 RNA
modifications: as 89(2) plus 2'-OMe G10,G11
B14: SEQ ID NO: 89(4) (ssRNA)
RNA: B11 RNA
modifications: as 89(2) plus 2'-OMe U9,G10,G11,C29,C30
B15: SEQ ID NO: 82(64) (ssRNA)
RNA: B1 RNA
modifications: 2'-F C5,U7,U17,U18,U19,C20,C24,U25,U33,U36; 2'-OH G8,G34; 2'-H A; 2'-OMe all other; 5' PEG40TS2; 3' idT
B16: SEQ ID NO: 82(1) (ssRNA)
RNA: B1 RNA
modifications: 2'-F all C and U; 2'-OMe G1-3,G9,G14,G16,G22,G27; 2'-OH G8,G34; 2'-H A; idT 5' and 3'
B17: SEQ ID NO: 160 (ssRNA)
RNA: B1 RNA with U17T
modifications: 2'-F C5,U7,U18,U19,C20,C24,U25,U33,U36; dT17; 2'-OH G8,G34; 2'-H A; 2'-OMe all other; idT 5' and 3'
B18: SEQ ID NO: 82(56) (ssRNA)
RNA: B1 RNA
modifications: 2'-F all C and U; 2'-OMe G1-3,G9,G14,G16,G22,G27; 2'-OH G8,G34; 2'-H A; 5' PEG40GS2; 3' idT
B19: SEQ ID NO: 161 (ssRNA)
RNA: B1 RNA with U33T
modifications: 2'-F C5,U7,U17,U18,U19,C20,C24,U25,U36; dT33; 2'-OH G8,G34; 2'-H A; 2'-OMe all other; idT 5' and 3'
B20: SEQ ID NO: 84 (ssRNA)
RNA: GGGUCCUGUCGCUAAGUUUCCGUCUUUGCGGCUGUUACCC
modifications: 2'-F C and U; 2'-OH G; 2'-H (deoxy) A

Positions count from the first letter of the chain named.

The term IC50 denotes the concentration at which inhibition is half-maximal.

T2 sequence (P01138 122-241, one chain of several): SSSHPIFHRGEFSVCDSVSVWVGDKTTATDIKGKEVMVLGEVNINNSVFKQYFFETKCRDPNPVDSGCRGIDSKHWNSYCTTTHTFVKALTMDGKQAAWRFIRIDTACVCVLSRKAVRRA

The first data set addresses T2, NGF (nerve growth factor) (Homo sapiens, UniProt P01138 P01138:122-241). Put plainly: cell_activity; neurite; TF-1 >0.1. To be noted: tags: R&D Systems; chain copies: 2.
B1 displayed an IC50 of 0.088 nM.

Regarding B2, the IC50 came out at 0.291 nM.

B3 had an IC50 of 0.299 nM. Same read-out and setting: the result for B4 reads 0.097 nM.

Molecule B5 had an IC50 of 0.244 nM.

For a further data set, the target named is T2, NGF (nerve growth factor). Put plainly: cell_activity; neurite; TF-1 <0.1. To be noted: tags: R&D Systems; chain copies: 2.
B6 had an IC50 of 0.173 nM.

In turn, B7 showed an IC50 of 0.111 nM. Against the preceding molecule, the IC50 is about 1.6-fold lower. Still for that read-out and setting: the result for B8 reads 0.241 nM; that for B9, 0.106 nM.

For the molecule B10, the IC50 was determined as 0.241 nM. The molecule B11 displayed an IC50 of 0.246 nM. Take B12: the IC50 worked out at 0.103 nM.

In turn, B13 had an IC50 of 0.122 nM. This IC50 and that of the molecule before are within 1.5-fold of each other. Consider B14, for which the IC50 is under 0.1 nM.

The target in another data set is T1, NT-4 (neurotrophin-4). Put plainly: cell_activity; TF-1. The settings on record: tags: R&D Systems; chain copies: 2. From the text:
Using TF-1 cells, whether NGF aptamer inhibits BDNF, NT-3, NT-4 was examined. Human receptor genes (TrkB, TrkC, p75) for respective neurotrophic factors were introduced into TF-1 cells (ATCC Number: CRL-2003), which is a human erythroleukemic cell line, by using a retrovirus vector to give cells that highly express these receptors stably. TF-1 cells introduced with TrkB and p75 were used for the evaluation of inhibitory activity against BDNF, TF-1 cells introduced with TrkC and p75 were used for the evaluation against NT-3, and TF-1 cells introduced with TrkB alone were used for the evaluation against NT-4. These cells were suspended in an RPMI-1640 medium containing 20% fetal bovine serum, and seeded in a white 96 well flat-bottom plate at 1000 cells (50 μL) per well. Thereto was added a mixed solution 50 μL of human BDNF (final concentration 0.074 nM) or NT-3 (final concentration 0.074 nM) or NT-4 (final concentration 0.071 nM) and the aptamer (final concentration 1 μM-0.01 nM), which had been pre-reacted at room temperature for 30 min in a serum-free RPMI-1640 medium, 3 days later, 100 μL of CellTiter-Glo reagent for CellTiter-Glo Luminescent Cell Viability Assay (manufactured by Promega) was added to each well, chemiluminescence was measured by a microplate reader. With the amount of luminescence per well obtained by the addition of BDNF or NT-3 or NT-4 alone and culture of the cells for 3 days as inhibitory activity 0%, and that of the well obtained by culture for 3 days without addition of BDNF or NT-3 or NT-4 as inhibitory activity 100%, the inhibitory activity of the aptamer was calculated from the amount of luminescence per well obtained by culturing with the addition of BDNF or NT-3 or NT-4 and the aptamer in mixture. When the inhibitory activity was 0 or below, ‘0%’ is indicated. The 50% inhibitory concentration (IC₅₀) was determined from the concentrations at two, above and below points sandwiching the 50% inhibitory activity. An IC₅₀ value indicated as “>X” means that the inhibitory activity was not more than 50% when the indicated concentration X was the maximum measured concentration. N.D. means not measured.
Molecule B6 gave an IC50 of under 100 nM. For the molecule B7, the IC50 amounted to 300 nM. This lies in the sub-micromolar range. In turn, B8 returned an IC50 of under 100 nM.

In turn, B14 had a concentration for half-maximal inhibition (IC50) of 271 nM.

The target in the next data set is T2, NGF (nerve growth factor). Put plainly: cell_activity; neurite outgrowth inhibition. The settings on record: tags: R&D Systems; chain copies: 2. As for the experimental part:
The cells (2500 cells per well) were cultured for one day in an RPMI-1640 medium containing 2.5% horse serum and 1.25% fetal bovine serum in a 96 well flat-bottom plate coated with collagen type IV. […] Two days later, the cytoplasm and nuclei were stained using Cellomics Neurite Outgrowth Kit (manufactured by Thermo Scientific), and neurite length per cell was measured by Cellomics ArrayScan VTI (manufactured by Thermo Scientific). With the neurite length per cell obtained by the addition of NGF alone as inhibitory activity 0%, and that of the cell obtained by NGF free culture for 2 days as inhibitory activity 100%, the inhibitory activity of the aptamer was calculated from the neurite length per cell obtained by culturing with the addition of NGF and the aptamer in mixture.
B15: the IC50 amounted to 0.107 nM. That is a sub-nanomolar value.

Consider B16, for which the midpoint of inhibition, the IC50, lay at 0.7 nM. B17 displayed an IC50 of 0.038 nM. Molecule B18 yielded an IC50 of 0.067 nM. Turning to B19, half-maximal inhibition (IC50) required 0.036 nM. As to B20, the IC50 worked out at 0.793 nM.
